Reference: patent US7981423B2, “Rage fusion proteins” (Transtech Pharma, Inc., priority 2004, dated 2011)

Key:
amphoterin (Ampho) = target: T1, amphoterin (Ampho) (Homo sapiens, UniProt P09429); assay: In vitro ligand binding ELISA, immobilized amphoterin; conditions: various dilutions of fusion protein; FIG. 7
T1 sequence (P09429 1-215): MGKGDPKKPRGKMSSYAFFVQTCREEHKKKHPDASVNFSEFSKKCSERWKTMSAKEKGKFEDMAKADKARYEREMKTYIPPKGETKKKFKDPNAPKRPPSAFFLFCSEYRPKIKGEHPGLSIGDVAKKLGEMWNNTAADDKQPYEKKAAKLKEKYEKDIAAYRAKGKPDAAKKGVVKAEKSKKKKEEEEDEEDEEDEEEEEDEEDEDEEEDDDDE
Method: (§1) For example, the RAGE fusion protein may be used in a binding assay to identify potential RAGE ligands. In one example embodiment of such a binding assay, a known RAGE ligand may coated onto a solid substrate (e.g., Maxisorb plates) at a concentration of about 5 micrograms per well, where each well contains a total volume of about 100 microliters (μL). The plates may be incubated at 4° C. overnight to allow the ligand to absorb. Alternatively, shorter incubation periods at higher temperature (e.g., room temperature) may be used. […] The fusion protein bound to the immobilized ligand may be detected in a variety of ways. […] The bound complex may be detected by adding the alkaline phosphatase substrate, para-nitrophenylphosphate (PNPP), and measuring conversion of PNPP to para-nitrophenol (PNP) as an increase in absorbance at 405 nm. […] Binding was detected by the addition of an immunodetection complex containing a monoclonal mouse anti-human IgG1 diluted 1:11,000 to a final assay concentration (FAC) of 21 ng/100 μL, a biotinylated goat anti-mouse IgG diluted 1:500, to a FAC of […], and an avidin-linked alkaline phosphatase. […] Binding of the complex to the immobilized fusion protein was quantified by measuring conversion of PNPP to para-nitrophenol (PNP) which was-measured spectrophotornetrically at 405 nm. […]

[1] = tested on: RAGE (S100b-stimulated THP-1 cells); assay: S100b/RAGE-induced production of TNF-α in THP-1 cells; format: cell-based; conditions: 10 μg protein, FIG. 10
Method: THP-1 myeloid cells may be cultured in RPMI-1640 media supplemented with 10% FBS and induced to secrete TNF-α via stimulation of RAGE with S100b. When such stimulation occurs in the presence of a RAGE fusion protein, induction of TNF-α, by S100b binding to RAGE may be inhibited.
Previous work has shown that the myeloid THP-1 cells may secrete TNF-α in response to RAGE ligands. In this assay, THP-1 cells were cultured in RPMI-1640 media supplemented with 10% FBS using a protocol provided by ATCC. […] The amount of TNF-α secreted by the THP-1 cells was measured 24 hours after the addition of the proteins to the cell culture using a commercially available ELISA kit for TNF-α (R&D Systems, Minneapolis, Minn.).

amyloid-beta (Abeta) = target: T2, amyloid-beta (Abeta) (Homo sapiens, UniProt P05067); assay: In vitro ligand binding ELISA, immobilized amyloid-beta; conditions: various dilutions of fusion protein; FIG. 7
T2 construct: Amyloid Beta (1-40) from Biosource; purchased Biosource
T2 sequence (P05067 672-711 limits assumed): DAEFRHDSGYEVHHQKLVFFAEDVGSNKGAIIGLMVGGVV
Method: as §1

B1: TTP-4000: four domain RAGE fusion protein (SEQ ID NO: 32): human RAGE amino acids 1-251 linked to CH2 and CH3 domains of human IgG (protein)
chain: MAAGTAVGAWALVLSLWGAVVGAQNITARIGEPLVLKCKGAPKKPPQRLEWKLNTGRTEAWKVLSPQGGGPWDSVARVLPNGSLFLPAVGIQDEGIFRCQAMNRNGKETKSNYRVRVYQIPGKPEIVDSASELTAGVPNKVGTCVSEGSYPAGTLSWHLDGKPLVPNEKGVSVKEQTRRHPETGLFTLQSELMVTPARGGDPRPTFSCSFSPGLPRHRALRTAPIQPRVWEPVPLEEVQLVVEPEGGAVAPPSVFLFPPKPKDTLMISRTPEVTCVVVDVSHEDPEVKFNWYVDGVEVHNAKTKPREEQYNSTYRVVSVLTVLHQDWLNGKEYKCKVSNKALPAPIEKTISKAKGQPREPQVYTLPPSRDELTKNQVSLTCLVKGFYPSDIAVEWESNGQPENNYKTTPPVLDSDGSFFLYSKLTVDKSRWQQGNVFSCSVMHEALHNHYTQKSLSLSPGK
- binding to immobilized amphoterin (absorbance at 405 nm) (amphoterin (Ampho)): specifically interact
- reduction of S100b induction of TNF-α ([1]; S100b 0.1 mg/ml FAC, 24 hours): ~70%
- effect on S100b induction of TNF-α (in words) ([1]; S100b 0.1 mg/ml): at least as effective in blocking S100b induction of TNF-α as is sRAGE
- binding to immobilized amyloid-beta (absorbance at 405 nm) (amyloid-beta (Abeta)): specifically interact
